From publication PMC12828022 (Nature Communications, 2025)
Numbering of substitutions follows the chain as printed. Numbers in names are those of the source.

T1: ACT1 residues 372-574 (wild type) (human, UniProt O43734-1 372-574)
T1 sequence: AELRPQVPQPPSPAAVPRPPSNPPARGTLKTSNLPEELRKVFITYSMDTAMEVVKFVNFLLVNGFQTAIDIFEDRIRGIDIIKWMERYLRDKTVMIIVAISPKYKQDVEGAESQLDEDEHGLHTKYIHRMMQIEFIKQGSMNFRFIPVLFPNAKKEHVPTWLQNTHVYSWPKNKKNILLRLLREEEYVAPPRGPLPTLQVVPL

T2: IL-17RA residues 361-866 (SEFIR domain and SEFEX, as part of the IL-17RB-RA fusion) (human, UniProt Q96F46-1 361-866)
T2 sequence: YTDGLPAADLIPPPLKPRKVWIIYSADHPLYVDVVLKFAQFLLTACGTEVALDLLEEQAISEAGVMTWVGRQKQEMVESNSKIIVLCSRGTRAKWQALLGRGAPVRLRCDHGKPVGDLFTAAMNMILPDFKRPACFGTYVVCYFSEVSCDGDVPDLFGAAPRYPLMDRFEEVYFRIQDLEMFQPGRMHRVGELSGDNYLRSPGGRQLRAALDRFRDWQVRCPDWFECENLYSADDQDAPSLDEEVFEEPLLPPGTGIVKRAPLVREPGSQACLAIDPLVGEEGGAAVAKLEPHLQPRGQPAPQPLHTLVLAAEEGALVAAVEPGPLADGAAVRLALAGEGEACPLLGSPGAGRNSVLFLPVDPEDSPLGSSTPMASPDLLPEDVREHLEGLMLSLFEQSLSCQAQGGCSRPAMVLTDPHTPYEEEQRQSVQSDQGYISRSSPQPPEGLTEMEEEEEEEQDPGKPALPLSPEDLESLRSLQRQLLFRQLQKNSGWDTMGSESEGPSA

B1: IL-17RC-RA fusion (IL-17RC residues 510-705, 3x(GGGS) linker, IL-17RA residues 361-866) (other)
chain: ARGRAALLLYSADDSGFERLVGALASALCQLPLRVAVDLWSRRELSAQGPVAWFHAQRRQTLQEGGVVVLLFSPGAVALCSEWLQDGVSGPGAHGPHDAFRASLSCVLPDFLQGRAPGSYVGACFDRLLHPDAVPALFRTVPVFTLPSQLPDFLGALQQPRAPRSGRLQERAEQVSRALQPALDSYFHPPGTPAPGGGGSGGGSGGGSYTDGLPAADLIPPPLKPRKVWIIYSADHPLYVDVVLKFAQFLLTACGTEVALDLLEEQAISEAGVMTWVGRQKQEMVESNSKIIVLCSRGTRAKWQALLGRGAPVRLRCDHGKPVGDLFTAAMNMILPDFKRPACFGTYVVCYFSEVSCDGDVPDLFGAAPRYPLMDRFEEVYFRIQDLEMFQPGRMHRVGELSGDNYLRSPGGRQLRAALDRFRDWQVRCPDWFECENLYSADDQDAPSLDEEVFEEPLLPPGTGIVKRAPLVREPGSQACLAIDPLVGEEGGAAVAKLEPHLQPRGQPAPQPLHTLVLAAEEGALVAAVEPGPLADGAAVRLALAGEGEACPLLGSPGAGRNSVLFLPVDPEDSPLGSSTPMASPDLLPEDVREHLEGLMLSLFEQSLSCQAQGGCSRPAMVLTDPHTPYEEEQRQSVQSDQGYISRSSPQPPEGLTEMEEEEEEEQDPGKPALPLSPEDLESLRSLQRQLLFRQLQKNSGWDTMGSESEGPSA
B2: IL-17RB-RA fusion (IL-17RB residues 328-484, 16-residue linker, IL-17RA residues 361-866) (other)
chain: LLPPIKVLVVYPSEICFHHTICYFTEFLQNHCRSEVILEKWQKKKIAEMGPVQWLATQKKAADKVVFLLSNDVNSVCDGTCGKSEGSPSENSQDLFPLAFNLFCSDLRSQIHLHKYVVVYFREIDTKDDYNALSVCPKYHLMKDATAFCAELLHVKQGGGSGGGSGGGSGGGSYTDGLPAADLIPPPLKPRKVWIIYSADHPLYVDVVLKFAQFLLTACGTEVALDLLEEQAISEAGVMTWVGRQKQEMVESNSKIIVLCSRGTRAKWQALLGRGAPVRLRCDHGKPVGDLFTAAMNMILPDFKRPACFGTYVVCYFSEVSCDGDVPDLFGAAPRYPLMDRFEEVYFRIQDLEMFQPGRMHRVGELSGDNYLRSPGGRQLRAALDRFRDWQVRCPDWFECENLYSADDQDAPSLDEEVFEEPLLPPGTGIVKRAPLVREPGSQACLAIDPLVGEEGGAAVAKLEPHLQPRGQPAPQPLHTLVLAAEEGALVAAVEPGPLADGAAVRLALAGEGEACPLLGSPGAGRNSVLFLPVDPEDSPLGSSTPMASPDLLPEDVREHLEGLMLSLFEQSLSCQAQGGCSRPAMVLTDPHTPYEEEQRQSVQSDQGYISRSSPQPPEGLTEMEEEEEEEQDPGKPALPLSPEDLESLRSLQRQLLFRQLQKNSGWDTMGSESEGPSA
B3: ACT1 residues 372-574 Y558F (domain or fragment)
chain: T1 sequence with Y187F
B4: IL-17RB residues 328-484 (SEFIR domain, as part of the IL-17RB-RA fusion) (domain or fragment)
chain: LLPPIKVLVVYPSEICFHHTICYFTEFLQNHCRSEVILEKWQKKKIAEMGPVQWLATQKKAADKVVFLLSNDVNSVCDGTCGKSEGSPSENSQDLFPLAFNLFCSDLRSQIHLHKYVVVYFREIDTKDDYNALSVCPKYHLMKDATAFCAELLHVKQ

Assays:
[1] = molecular target: T1, ACT1 residues 372-574 (wild type); test: negative-stain EM
[2] = molecular target: T1, ACT1 residues 372-574 (wild type); test: SEC
[3] = molecular target: T2, IL-17RA residues 361-866 (SEFIR domain …); test: cryo-EM structure

| Binder | binding result [3] | other results |
| --- | --- | --- |
| B1 |  | binding result [1]: binds |
| B2 |  | binding result [2]: binds |
| B3 | binds |  |
| B4 | binds |  |
